Measurements from PMC5524982.

Columns and labels:
[1] = biological target: Proteus mirabilis ScsC (PmScsC), wild type, lacking the predicted secretion signal (Proteus mirabilis); assay: SEC-MALS; Superdex 200 or Superdex 75 10/300 GL, 25 mM Tris, 150 mM NaCl, pH 7.5; 500 μl of 3 mg ml^-1 injected, 1.0 ml min^-1
[2] = biological target: Proteus mirabilis ScsC (PmScsC), wild type, lacking the predicted secretion signal (Proteus mirabilis); assay: SAXS; reduced PmScsC in 25 mM HEPES pH 7.5, 150 mM NaCl, 1 mM DTT; Australian Synchrotron SAXS-WAXS beamline; also pH 6.0-8.0 and 150-1,500 mM NaCl
[3] = biological target: Proteus mirabilis ScsC (PmScsC), wild type, lacking the predicted secretion signal (Proteus mirabilis); assay: cross-linking; 150 μM purified PmScsC in 50 mM HEPES pH 8.5 with 3 mM DTSSP, 30 s–30 min, 23 °C; non-reducing SDS-PAGE, Coomassie; 50 mM DTT as control cleaves the cross-links
[4] = biological target: Proteus mirabilis ScsC (PmScsC), wild type, lacking the predicted secretion signal (Proteus mirabilis); assay: crystal structure; transitional structure: oxidized PmScsC, 2.85 M sodium malonate pH 5.8 with 0.1 M copper(II) chloride, 20 °C; 6 molecules (two trimers) in the asymmetric unit
[5] = biological target: Proteus mirabilis ScsC (PmScsC), wild type, lacking the predicted secretion signal (Proteus mirabilis); assay: crystal structure; extended structure: oxidized PmScsC with 2.5 mM copper(II) chloride, 32% Jeffamine M-600 pH 7, 0.1 M HEPES pH 8, 20 °C; one molecule in the asymmetric unit, trimer generated by crystal symmetry
[6] = biological target: Selenomethionine-labelled PmScsC (Proteus mirabilis); assay: crystal structure; compact structure: selenomethionine-labelled PmScsC, 2.85 M sodium malonate pH 5.8 with 0.1 M cobalt(II) chloride, 20 °C; 24 copies (8 trimers) in the asymmetric unit

Measured: stoichiometry N

Proteus mirabilis ScsC (PmScsC), wild type, lacking the predicted secretion signal (enzyme)
not listed: [6]
3: all other assays above

Selenomethionine-labelled PmScsC (enzyme)
3: [6]
